Legend:
fbw1b_human FBXW11 = fbw1b_human FBXW11 (UniProt Q9UKB1)
fbw1a_human BTRC = fbw1a_human BTRC (UniProt Q9Y297)
Sequence of fbw1a_human BTRC (Q9Y297 whole entry): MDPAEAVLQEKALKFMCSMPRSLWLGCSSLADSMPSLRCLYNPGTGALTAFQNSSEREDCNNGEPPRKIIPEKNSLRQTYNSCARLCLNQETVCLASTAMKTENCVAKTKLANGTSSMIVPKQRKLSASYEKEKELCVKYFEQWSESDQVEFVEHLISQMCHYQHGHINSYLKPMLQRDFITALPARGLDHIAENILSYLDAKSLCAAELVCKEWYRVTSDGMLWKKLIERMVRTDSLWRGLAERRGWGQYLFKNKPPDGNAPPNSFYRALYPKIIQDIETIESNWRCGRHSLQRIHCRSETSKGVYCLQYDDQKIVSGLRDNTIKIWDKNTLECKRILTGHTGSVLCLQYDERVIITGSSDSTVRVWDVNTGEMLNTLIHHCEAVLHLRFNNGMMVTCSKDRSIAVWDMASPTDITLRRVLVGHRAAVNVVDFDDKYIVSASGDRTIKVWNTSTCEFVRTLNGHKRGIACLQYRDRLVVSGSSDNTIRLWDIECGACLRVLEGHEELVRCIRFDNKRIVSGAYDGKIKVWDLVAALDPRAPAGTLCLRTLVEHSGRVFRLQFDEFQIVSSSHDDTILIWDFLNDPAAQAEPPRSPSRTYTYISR

Sequence of fbw1b_human FBXW11 (Q9UKB1 whole entry): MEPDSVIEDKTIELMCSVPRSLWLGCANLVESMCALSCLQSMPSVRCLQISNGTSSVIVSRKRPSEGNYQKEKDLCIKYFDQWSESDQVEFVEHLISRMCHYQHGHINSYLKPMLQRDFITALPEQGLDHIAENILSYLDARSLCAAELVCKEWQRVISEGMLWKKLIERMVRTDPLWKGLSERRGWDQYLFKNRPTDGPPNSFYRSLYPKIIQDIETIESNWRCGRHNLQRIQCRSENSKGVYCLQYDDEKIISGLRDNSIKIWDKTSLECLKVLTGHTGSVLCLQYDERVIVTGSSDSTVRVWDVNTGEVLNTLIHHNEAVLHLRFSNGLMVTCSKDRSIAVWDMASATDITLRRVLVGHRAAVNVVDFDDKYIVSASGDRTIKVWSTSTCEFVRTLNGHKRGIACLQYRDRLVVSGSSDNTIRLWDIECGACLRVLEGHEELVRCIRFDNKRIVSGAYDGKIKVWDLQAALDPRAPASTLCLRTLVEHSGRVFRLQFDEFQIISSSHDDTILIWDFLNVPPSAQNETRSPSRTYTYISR

Row | Substance | effect of a mutation on the interaction (fbw1b_human FBXW11) | effect of a mutation on the interaction (fbw1a_human BTRC)
1 | Wee1-like protein kinase (Homo sapiens), P30291 D52A;S123A | decreasing interaction | –
2 | Wee1-like protein kinase (Homo sapiens), P30291 E116A;E117A | – | decreasing interaction
3 | Wee1-like protein kinase (Homo sapiens), P30291 S53A;S123A | decreasing interaction | –
4 | Wee1-like protein kinase (Homo sapiens), P30291 S121A | – | decreasing interaction
5 | Wee1-like protein kinase (Homo sapiens), P30291 S123A | – | decreasing interaction

Reference: IntAct's records for PubMed 15070733
